Results taken from the supplement of paper PMC10567573.
± gives the standard deviation.

Experiment: protein stability index of a GFP-peptide fusion (GPS, HEK-293T) (PSI 1-6); higher = more stable
[1] = treatment: MLN4924 1 uM, 8 h, c terminus: a fixed tail appended
[2] = treatment: DMSO, c terminus: a fixed tail appended
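Also: 24-mer peptide tiles fused after GFP, lentivirally expressed, FACS-sorted into six equal bins by GFP/DsRed ratio, decoded by Illumina sequencing, PSI is the read-weighted mean bin number.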

Sequence	protein stability index [1]	protein stability index [2]	protein stability index (treatment: DMSO, c terminus: native)	protein stability index (treatment: MLN4924 1 uM, 8 h, c terminus: native)
TGVFITLSIVLERMRYEGVVDIFQ [PTPRD]	3.66 ± 0.2			
ACLIVMFLPEKKDTGVFAVVNSHS [SLC22A15]	2.12 ± 0.19	3.22 ± 0.56		
PDPGPSPEASHLRFRRFRFQEAAG [ZNF263]	3.23 ± 0.31	3.16 ± 0.13		
KKKKKQKNKKSSTGEASENGLEDI [TCF25]	4.49 ± 0.25	5.04 ± 0.097		
PLVYKAIQQGINAVNQEAMNNAQR [ACSBG2]	3.45 ± 0.23	3.331 ± 0.031		
RVRGLGLPKLYLPTGPRRGRDELG [CDKN1A]	3.43 ± 0.057	3.33 ± 0.58		
NAAHLGDKRRDLAHLAAEVEGKCL [TRIM39]	4.5 ± 0.16	4.46 ± 0.22		
YDITKEETFSTLKNWVKELRQHGP [RAB22A]	3.24 ± 0.16	2.85 ± 0.49		
NHGLVSVGESVEEAFYYIHNLVVA [ADD1]	2.1 ± 0.58	2.24 ± 0.31		
HTEVVRDLTFAPDGSLILVSASRD [WSB1]	3.53 ± 0.27	3.45 ± 0.054		
TAGQERYRAITSAYYRGAVGALLV [RAB11A]	2.19 ± 0.24	2.22 ± 0.24		
YLRDSSPAPCADGPAGGLADLSSG [PWWP2B]	4.8 ± 0.11	4.78 ± 0.2		
IKRGDILPPEKGREVAKELGLPYY [RHOBTB1]	3.37 ± 0.39	3.2 ± 0.22		
MKQLQQQQHSDKTSLQGLTGTPLV [ISL2]	4.2 ± 0.23	4.01 ± 0.35		
TPSVPPPASQHSTPAGLPPSRAKP [FBF1]	5.22 ± 0.23	5.3 ± 0.25		
REIMEKFGKQPVSLPARRLKLRGR [CPXM2]	3.65 ± 0.088	3.64 ± 0.16		
SQFSGTLMRTCERLVKEGRFVPSN [PPTC7]	3.04 ± 0.4	3.12 ± 0.17		
TVVKSLIDNSSEIEDEDQILENSS [FAN1]	5.38 ± 0.13	5.202 ± 0.02		
EGEADHSGYAGELGFRAFSGSGNR [UFD1]	4.69 ± 0.54	4.63 ± 0.25		
SSVQSYPGSASLAQSRLEDPGQDL [DLX1]	5.09 ± 0.19	4.89 ± 0.28		
PFKAYLDVDITLSSEAFHNYMNAA [RTN3]	2.71 ± 0.72	2.92 ± 0.44		
SRVNNASYCPHCGEESSKAKEVTI [EHMT1]	3.37 ± 0.32	3.39 ± 0.14		

Sequence	protein stability index [1]	protein stability index [2]	protein stability index (treatment: DMSO, c terminus: native)	protein stability index (treatment: MLN4924 1 uM, 8 h, c terminus: native)
PEKIGTRFLLYTNENPNNFQILLL [PNLIPRP1]	2.48 ± 0.46	2.26 ± 0.46		
TITAPPSRVLQNGGDKLETMPLYL [SCD]	3.43 ± 0.29	3.5 ± 0.41		
LVALAEQHAVQELTKAATSGVGID [RHOBTB1]	4.18 ± 0.19	4.08 ± 0.29		
QALLDVKNIAHQNKFGEDMPHPH [HDAC6]			4.99 ± 0.18	5.08 ± 0.12
SSSKGTIRLCDMRASALCDRHTKF [PPP2R2B]	3.14 ± 0.078	3.01 ± 0.048		
LCGPHAKAPYLCEATHEPAAARIR	3.61 ± 0.24	3.75 ± 0.2		
DKYCPLLIKEGGMPLLRDIIKMAT [ZER1]	2.22 ± 0.31	2.46 ± 0.3		
LTVLQRLDVWLSGGNDLCVWNRKL [WDR41]	2.39 ± 0.32	2.17 ± 1		
VASLERFSTYTSDKDENKLSEASG [ZC3H15]	4.96 ± 0.2	5.01 ± 0.42		
AHFSPFLYYQSQELPNGSVKEAPA [PDZK1]	3.33 ± 0.13	3.45 ± 0.13		
YQSGGRLKRPVNVPFDIFTEEVKF [KCNA4]	2.8 ± 0.57	2.42 ± 0.26		
RFCLPHLVALAEQHAVQELTKAAT [RHOBTB1]	2.08 ± 0.15	2.12 ± 0.18		
NRGLILYRLGYFDDALEDFKKVLD [TTC32]	2.24 ± 0.14	2.05 ± 0.59		
NQLILTASADRTVIVWDGDTTRQV [WDR41]	3.12 ± 0.2	2.79 ± 0.2		
ALQAAAHASVDIKDVLDFYKQWKE [SMG5]	3.37 ± 0.31	3.19 ± 0.14		
EEKQHLERLNKEYQEIFQQLQRSW [TRIM43]	3.77 ± 0.42	3.84 ± 0.23		
IPPYSRASLKGYQWLKDKILSEEG [KCNAB2]	3.02 ± 0.54	2.64 ± 0.45		
VTKITLESFLAWKKRKRQEKIDKL [ZC3H15]	2.6 ± 0.47	2.78 ± 0.81		
CASPVTGPGSKRDAHFCAVCSDYA [ESR2]	3.16 ± 0.29	3.08 ± 0.22		
TIENILDNDPRDLIGDFSKGYLFH [CDC25A]	2.69 ± 0.19	2.58 ± 0.38		
RLLGSVQQDLERSLQDASRGDPAH [PBXIP1]	4.56 ± 0.46	4.7 ± 0.2		
WIRICRPGSIIGPQQHFLEEKQAS [CDC14A]	2.36 ± 0.48	2.18 ± 0.46		

Sequence	protein stability index [1]	protein stability index [2]	protein stability index (treatment: DMSO, c terminus: native)	protein stability index (treatment: MLN4924 1 uM, 8 h, c terminus: native)
KIGDTKRNTPIEALCENFPEEMAT [CSNK1G1]	5.31 ± 0.2	5.14 ± 0.2		
FPAMLFSSMLTGILWDTLLRLCAW [POMT2]	3.09 ± 0.12	3.23 ± 0.51		
GLAMALEPNTTFLRKSLKAALKHL [FANCE]	2.54 ± 0.62	2.48 ± 0.33		
FSSDKAKAGSSEWLAVDGLVSPSN [ATF4]	4.08 ± 0.32	3.8 ± 0.26		
KTQSELASESEHIPKPQSTGWFGG [MIA2]	4.43 ± 0.096	3.97 ± 0.12		
ERSVFSERTEESSAVQYFQFYGYL [CARM1]	2.23 ± 0.25	2.08 ± 0.1		
VAIFIMSLNKRHSSGDGNSKLKSE [MFSD9]	2.16 ± 0.12	2.77 ± 1.2		
APGVDLSRILNEMRDQYEQMAEKN [KRT16]	4.42 ± 0.16	4.27 ± 0.35		
SSPQGKSGPEAARAGGWVSGEEFY [PKD2L1]	4.54 ± 0.17	4.51 ± 0.2		
CIRLWKYALDMQQSNLEPLSPMTA [FEM1A]	2.34 ± 0.35	2.52 ± 0.54		
MPLEQRSQHCKPEEGLEARGEALG [MAGEA3]	5.39 ± 0.14	5.34 ± 0.34		
INQLTFIMDANQTYLVSERLEREE [FAF2]	3.15 ± 0.21	3.17 ± 0.15		
ASTEADKRLSRFDIEMSMRGDIFE [NLN]	4.14 ± 0.27	4.02 ± 0.57		
AVNQKIDRESLCGASTSCLLPVQV [PCDHGC5]	3.26 ± 0.65	2.99 ± 0.13		
YRFASAGDDGIVVVWNAQTGEKLL [WDR41]	2.75 ± 0.1	2.43 ± 0.17		
IGVILFSSAVYFAEADEPTTHFQS [KCNA4]	2.69 ± 1	2.36 ± 0.58		
SSGCFMEYLENQVIKDKDDSVDAQ [RNF180]	4.63 ± 0.19	4.59 ± 0.21		
SNVGTAISKKFGDMSYSIRHSISM [TPD52L1]	2.26 ± 0.45	2.19 ± 0.49		
VLMCGFPFLLLFLGNFFTTLRVVH [TMEM120A]	3.23 ± 0.48	2.95 ± 0.24		
FLDLVKPEPVYKLTQRQVNITVQK [HACD3]	2.79 ± 0.44	2.56 ± 0.14		
PPPLDQYVKFDAVSGDYYPIIYFN [CLPTM1]	2.37 ± 0.44	2.32 ± 0.14		
